Laboratory results from publication PMC11869522, “Competitive displacement of lipoprotein lipase from heparan sulfate is orchestrated by a disordered acidic cluster in GPIHBP1” (Journal of Lipid Research, 2025).

B1: GPIHBP1^Cluster1-neutral: GPIHBP1 mutant with all Glu/Asp replaced by Gln/Asn at residues 1–17 (protein)
chain: QTQQQQQQQNQNHGPNNYDEEDEDEVEEEETNRLPGGGSRVLLRCYTCKSLPRDERCNLTQNCSHGQTCTTLIAHGNTESGLLTTHSTWCTDSCQPITKTVEGTQVTMTCCQSSLCNVPPWQSSRVQDPTG
modifications: Tyr18 sulfation present in less than 40%; one bi-antennary N-linked glycosylation; left off: uPAR domain III, N-terminal, cleaved
B2: GPIHBP1^Cluster2-neutral: GPIHBP1 mutant with all Glu/Asp replaced by Gln/Asn at residues 19–30 (protein)
chain: QTQQEEEEEDEDHGPDDYNQQNQNQVQQQQTNRLPGGGSRVLLRCYTCKSLPRDERCNLTQNCSHGQTCTTLIAHGNTESGLLTTHSTWCTDSCQPITKTVEGTQVTMTCCQSSLCNVPPWQSSRVQDPTG
modifications: Tyr18 sulfation absent; one bi-antennary N-linked glycosylation; left off: uPAR domain III, N-terminal, cleaved

Key:
[1] = system: mouse LPL; test: Native PAGE binding to mouse LPL; details: 4 µM LPL with 18 µM GPIHBP1, 30 min on ice; Coomassie staining
Procedure: (§1) Distinct impacts of disordered acidic clusters in GPIHBP1
(§2) To confirm interactions between puri fi ed human GPIHBP11–131, G P IH B P 1 Cluster1-neutral, or GPIHBP1 Cluster2-neutral with human, mouse, and bovine LPL, these protein pairs were incubated for 30 min on ice (4 µM LPL with 18 µM GPIHBP1) before they were analyzed by native PAGE. As th ese concentrations were well above t he K D of 0.2 nM for the wildtype LPL•GPIHBP1 interaction, LPL is saturated with GPIHBP1 in these experiments (1). […]
(§3) spect r a for the purified GPIHBP1 variants wer e r ecor ded at 25°C in Helman cuvettes (path- length of 1 mm) with a scan rate of 50 nm/ min c ove r i ng the range of 190- 250 nm, averaging three scans for each protein. Spectra for the pr ote i ns were compared after converting to molar ellipticity using the following equation, […] where, Mw is the molecular weight of the protein, c is the protein concentration in g/l, l is the pat h-length of the cuvette, Nr number of amino acid residues in the protein.
(§4) Figure S1 : Binding of GPIHBP1 charge mutants to LPL as assessed by Native PAGE. The electrophoretic mobility of GPIHBP1 variants alone or in presence of purified human LPL ( A), b ovine LPL (B), and murine LPL (C) was assessed by native PAGE followed by Coomassie blue staining. […]

[2] = system: bLPL; test: Protein stability by differential scanning fluorimetry (nano-DSF, turbidity); design: species or system bovine; details: 10 μM bLPL with 15 μM GPIHBP1 variant; 10 mM HEPES, 150 mM NaCl pH 7.4; 1°C/min, 15−95°C; back-reflection turbidity; triplicates
Procedure: The thermostability of bLPL in the presence or absence of GPIHBP1 was measured by differential scanning fluorometry (nano-DSF) with a Prometheus Panta (Nanotemper Technologies) using a previously published method ([22]). In brief; 10 μM bLPL alone or in the presence of 15 μM GPIHBP1^1–131, 15 μM GPIHBP1^Cluster1-neutral, or 15 μM GPIHBP1^Cluster2-neutra1 were prepared in 10 mM HEPES, 150 mM NaCl (pH 7.4) and heated in capillaries with a ramping temperature of 1°C/min from 15−95°C. Turbidity was measured by assessing back-reflection and was used as a surrogate marker for thermal unfolding ([20]). All samples were measured in triplicates.
Next, we probed if recombinant GPIHBP1^1–131 with defined neutralizations of charge-clusters 1 or 2 had distinct impacts on their ability to protect bLPL from ANGPTL4-mediated inactivation. […]
Fig. 4 GPIHBP1 clusters 1 and 2 have distinct impacts on LPL stability and inactivation by ANGPTL4. […] LPL activity was measured by the release of free fatty acids from Intralipid using the NEFA 2 assay. […] B: Thermostability of 10 μM bLPL in the presence of 15 μM of the different GPIHBP1 charge variants using Tturbidity measured by Prometheus Panta™ as a surrogate marker for unfolding ([20]).

[3] = system: bovine LPL; test: Native PAGE binding to bovine LPL; details: 4 µM LPL with 18 µM GPIHBP1, 30 min on ice; Coomassie staining
Procedure: as §1, §2, §3, §4

| Molecule | binding to mLPL as judged by native PAGE [1] | Tturbidity (thermal unfolding and aggregation of bLPL) [2] [°C] | binding to bLPL as judged by native PAGE [3] |
| --- | --- | --- | --- |
| B1 | bound | 50.4 ± 0.2 | bound |
| B2 | bound | 48.8 ± 0.1 | bound |
